# From patent publication US20160024487
# T1: Lys(Dnp)-ATNATMFPRIVGG-Lys(Abz)
# T1 chain: KATNATMFPRIVGGK
# T2: Lys(Dnp)-ATNATPFPRIVGG-Lys(Abz)
# T2 chain: KATNATPFPRIVGGK
# T3: Lys(Dnp)-ATNATVQPRIVGG-Lys(Abz)
# T3 chain: KATNATVQPRIVGGK
# T4: Lys(Dnp)-ATNATPKPRIVGG-Lys(Abz)
# T4 chain: KATNATPKPRIVGGK
# T5: Lys(Dnp)-ATNATITPRIVGG-Lys(Abz)
# T5 chain: KATNATITPRIVGGK
# T6: Lys(Dnp)-ATNATFHPRIVGG-Lys(Abz)
# T6 chain: KATNATFHPRIVGGK
# T7: Lys(Dnp)-ATNATVMPRIVGG-Lys(Abz)
# T7 chain: KATNATVMPRIVGGK
# T8: Lys(Dnp)-ATNATWHPRIVGG-Lys(Abz)
# T8 chain: KATNATWHPRIVGGK
# T9: Lys(Dnp)-ATNATLVPRIVGG-Lys(Abz)
# T9 chain: KATNATLVPRIVGGK
# T10: Lys(Dnp)-ATNATAVPRIVGG-Lys(Abz)
# T10 chain: KATNATAVPRIVGGK
# T11: Lys(Dnp)-ATNATIFPRIVGG-Lys(Abz)
# T11 chain: KATNATIFPRIVGGK
# T12: Lys(Dnp)-ATNATLRPRIVGG-Lys(Abz)
# T12 chain: KATNATLRPRIVGGK
# T13: Lys(Dnp)-ATNATWPPRIVGG-Lys(Abz)
# T13 chain: KATNATWPPRIVGGK
# T14: Lys(Dnp)-ATNATVTPRIVGG-Lys(Abz)
# T14 chain: KATNATVTPRIVGGK
# T15: Lys(Dnp)-ATNATWTPRIVGG-Lys(Abz)
# T15 chain: KATNATWTPRIVGGK
# T16: Lys(Dnp)-ATNATLSPRIVGG-Lys(Abz)
# T16 chain: KATNATLSPRIVGGK
# T17: Lys(Dnp)-ATNATGNPRIVGG-Lys(Abz)
# T17 chain: KATNATGNPRIVGGK
# T18: Lys(Dnp)-ATNATESPRIVGG-Lys(Abz)
# T18 chain: KATNATESPRIVGGK
# T19: Lys(Dnp)-ATNATERPRIVGG-Lys(Abz)
# T19 chain: KATNATERPRIVGGK
# T20: Lys(Dnp)-ATNATRSPRIVGG-Lys(Abz)
# T20 chain: KATNATRSPRIVGGK
# T21: Lys(Dnp)-ATNATALPRIVGG-Lys(Abz)
# T21 chain: KATNATALPRIVGGK
# T22: Lys(Dnp)-ATNATYYPRIVGG-Lys(Abz)
# T22 chain: KATNATYYPRIVGGK
# T23: Lys(Dnp)-ATNATRMPRIVGG-Lys(Abz)
# T23 chain: KATNATRMPRIVGGK
# T24: Lys(Dnp)-ATNATHNPRIVGG-Lys(Abz)
# T24 chain: KATNATHNPRIVGGK
# T25: Lys(Dnp)-ATNATRHPRIVGG-Lys(Abz)
# T25 chain: KATNATRHPRIVGGK
# T26: Lys(Dnp)-ATNATTRPRIVGG-Lys(Abz)
# T26 chain: KATNATTRPRIVGGK
# T27: Lys(Dnp)-ATNATVRPRIVGG-Lys(Abz)
# T27 chain: KATNATVRPRIVGGK
# T28: Lys(Dnp)-ATNATMLPRIVGG-Lys(Abz)
# T28 chain: KATNATMLPRIVGGK
# T29: Lys(Dnp)-ATNATILPRIVGG-Lys(Abz)
# T29 chain: KATNATILPRIVGGK
# T30: Lys(Dnp)-ATNATRLPRIVGG-Lys(Abz)
# T30 chain: KATNATRLPRIVGGK
# T31: Lys(Dnp)-ATNATLEPRIVGG-Lys(Abz)
# T31 chain: KATNATLEPRIVGGK
# T32: Lys(Dnp)-ATNATSYPRIVGG-Lys(Abz)
# T32 chain: KATNATSYPRIVGGK
# T33: Lys(Dnp)-ATNATGWPRIVGG-Lys(Abz)
# T33 chain: KATNATGWPRIVGGK
# T34: Lys(Dnp)-ATNATQHPRIVGG-Lys(Abz)
# T34 chain: KATNATQHPRIVGGK
# T35: Lys(Dnp)-ATNATDQPRIVGG-Lys(Abz)
# T35 chain: KATNATDQPRIVGGK
# T36: Lys(Dnp)-ATNATRKPRIVGG-Lys(Abz)
# T36 chain: KATNATRKPRIVGGK
# T37: Lys(Dnp)-ATNATAMPRIVGG-Lys(Abz)
# T37 chain: KATNATAMPRIVGGK
# T38: Lys(Dnp)-ATNATDRPRIVGG-Lys(Abz)
# T38 chain: KATNATDRPRIVGGK
# T39: Lys(Dnp)-ATNATNNPRIVGG-Lys(Abz)
# T39 chain: KATNATNNPRIVGGK
# T40: Lys(Dnp)-ATNATQRPRIVGG-Lys(Abz)
# T40 chain: KATNATQRPRIVGGK
# T41: Lys(Dnp)-ATNATWWPRIVGG-Lys(Abz)
# T41 chain: KATNATWWPRIVGGK
# Key:
# [1] = target: T1, Lys(Dnp)-ATNATMFPRIVGG-Lys(Abz)
# [2] = target: T2, Lys(Dnp)-ATNATPFPRIVGG-Lys(Abz)
# [3] = target: T3, Lys(Dnp)-ATNATVQPRIVGG-Lys(Abz)
# [4] = target: T4, Lys(Dnp)-ATNATPKPRIVGG-Lys(Abz)
# [5] = target: T5, Lys(Dnp)-ATNATITPRIVGG-Lys(Abz)
# [6] = target: T6, Lys(Dnp)-ATNATFHPRIVGG-Lys(Abz)
# [7] = target: T7, Lys(Dnp)-ATNATVMPRIVGG-Lys(Abz)
# [8] = target: T8, Lys(Dnp)-ATNATWHPRIVGG-Lys(Abz)
# [9] = target: T9, Lys(Dnp)-ATNATLVPRIVGG-Lys(Abz)
# [10] = target: T10, Lys(Dnp)-ATNATAVPRIVGG-Lys(Abz)
# [11] = target: T11, Lys(Dnp)-ATNATIFPRIVGG-Lys(Abz)
# [12] = target: T12, Lys(Dnp)-ATNATLRPRIVGG-Lys(Abz)
# [13] = target: T13, Lys(Dnp)-ATNATWPPRIVGG-Lys(Abz)
# [14] = target: T14, Lys(Dnp)-ATNATVTPRIVGG-Lys(Abz)
# [15] = target: T15, Lys(Dnp)-ATNATWTPRIVGG-Lys(Abz)
# [16] = target: T16, Lys(Dnp)-ATNATLSPRIVGG-Lys(Abz)
# [17] = target: T17, Lys(Dnp)-ATNATGNPRIVGG-Lys(Abz)
# [18] = target: T18, Lys(Dnp)-ATNATESPRIVGG-Lys(Abz)
# [19] = target: T19, Lys(Dnp)-ATNATERPRIVGG-Lys(Abz)
# [20] = target: T20, Lys(Dnp)-ATNATRSPRIVGG-Lys(Abz)
# [21] = target: T21, Lys(Dnp)-ATNATALPRIVGG-Lys(Abz)
# [22] = target: T22, Lys(Dnp)-ATNATYYPRIVGG-Lys(Abz)
# [23] = target: T23, Lys(Dnp)-ATNATRMPRIVGG-Lys(Abz)
# [24] = target: T24, Lys(Dnp)-ATNATHNPRIVGG-Lys(Abz)
# [25] = target: T25, Lys(Dnp)-ATNATRHPRIVGG-Lys(Abz)
# [26] = target: T26, Lys(Dnp)-ATNATTRPRIVGG-Lys(Abz)
# [27] = target: T27, Lys(Dnp)-ATNATVRPRIVGG-Lys(Abz)
# [28] = target: T28, Lys(Dnp)-ATNATMLPRIVGG-Lys(Abz)
# [29] = target: T29, Lys(Dnp)-ATNATILPRIVGG-Lys(Abz)
# [30] = target: T30, Lys(Dnp)-ATNATRLPRIVGG-Lys(Abz)
# [31] = target: T31, Lys(Dnp)-ATNATLEPRIVGG-Lys(Abz)
# [32] = target: T32, Lys(Dnp)-ATNATSYPRIVGG-Lys(Abz)
# [33] = target: T33, Lys(Dnp)-ATNATGWPRIVGG-Lys(Abz)
# [34] = target: T34, Lys(Dnp)-ATNATQHPRIVGG-Lys(Abz)
# [35] = target: T35, Lys(Dnp)-ATNATDQPRIVGG-Lys(Abz)
# [36] = target: T36, Lys(Dnp)-ATNATRKPRIVGG-Lys(Abz)
# [37] = target: T37, Lys(Dnp)-ATNATAMPRIVGG-Lys(Abz)
# [38] = target: T38, Lys(Dnp)-ATNATDRPRIVGG-Lys(Abz)
# [39] = target: T39, Lys(Dnp)-ATNATNNPRIVGG-Lys(Abz)
# [40] = target: T40, Lys(Dnp)-ATNATQRPRIVGG-Lys(Abz)
# [41] = target: T41, Lys(Dnp)-ATNATWWPRIVGG-Lys(Abz)
protein,measurement,setting,value
Human plasma purified Factor Xa (protein) chain 1: ANSFLEEMKKGHLERECMEETCSYEEAREVFEDSDKTNEFWNKYKDGDQCETSPCQNQGKCKDGLGEYTCTCLEGFEGKNCELFTRKLCSLDNGDCDQFCHEEQNSVVCSCARGYTLADNGKACIPTGPYPCGKQTLER chain 2: IVGGQECKDGECPWQALLINEENEGFCGGTILSEFYILTAAHCLYQAKRFKVRVGDRNTEQEEGGEAVHEVEVVIKHNRFTKETYDFDIAVLRLKTPITFRMNVAPACLPERDWAESTLMTQKTGIVSGFGRTHEKGRQSTRLKMLEVPYVDRNSCKLSSSFIITQNMFCAGYDTKQEDACQGDSGGPHVTRFKDTYFVTGIVSWGEGCARKGKYGIYTKVTAFLKWIDRSMKTRGLPKAKSHAPEVITSSPLK,FXa kcat/KM,[1],55 M⁻¹ s⁻¹
same,FXa kcat/KM,[2],69 M⁻¹ s⁻¹
same,FXa kcat/KM,[3],250 M⁻¹ s⁻¹
same,FXa kcat/KM,[4],74 M⁻¹ s⁻¹
same,FXa kcat/KM,[5],840 M⁻¹ s⁻¹
same,FXa kcat/KM,[6],150 M⁻¹ s⁻¹
same,FXa kcat/KM,[7],280 M⁻¹ s⁻¹
same,FXa kcat/KM,[8],42 M⁻¹ s⁻¹
same,FXa kcat/KM,[9],360 M⁻¹ s⁻¹
same,FXa kcat/KM,[10],42 M⁻¹ s⁻¹
same,FXa kcat/KM,[11],130 M⁻¹ s⁻¹
same,FXa kcat/KM,[12],610 M⁻¹ s⁻¹
same,FXa kcat/KM,[13],17 M⁻¹ s⁻¹
same,FXa kcat/KM,[14],68 M⁻¹ s⁻¹
same,FXa kcat/KM,[15],46 M⁻¹ s⁻¹
same,FXa kcat/KM,[16],690 M⁻¹ s⁻¹
"Human plasma purified Factor Xa (Molecular Innovations, Inc) (protein) chain 1: ANSFLEEMKKGHLERECMEETCSYEEAREVFEDSDKTNEFWNKYKDGDQCETSPCQNQGKCKDGLGEYTCTCLEGFEGKNCELFTRKLCSLDNGDCDQFCHEEQNSVVCSCARGYTLADNGKACIPTGPYPCGKQTLER chain 2: IVGGQECKDGECPWQALLINEENEGFCGGTILSEFYILTAAHCLYQAKRFKVRVGDRNTEQEEGGEAVHEVEVVIKHNRFTKETYDFDIAVLRLKTPITFRMNVAPACLPERDWAESTLMTQKTGIVSGFGRTHEKGRQSTRLKMLEVPYVDRNSCKLSSSFIITQNMFCAGYDTKQEDACQGDSGGPHVTRFKDTYFVTGIVSWGEGCARKGKYGIYTKVTAFLKWIDRSMKTRGLPKAKSHAPEVITSSPLK",FXa kcat/KM,[17],52 M⁻¹ s⁻¹
same,FXa kcat/KM,[18],5.3 M⁻¹ s⁻¹
same,FXa kcat/KM,[19],300 M⁻¹ s⁻¹
same,FXa kcat/KM,[20],2700 M⁻¹ s⁻¹
same,FXa kcat/KM,[21],300 M⁻¹ s⁻¹
same,FXa kcat/KM,[22],48 M⁻¹ s⁻¹
same,FXa kcat/KM,[23],4600 M⁻¹ s⁻¹
same,FXa kcat/KM,[24],71 M⁻¹ s⁻¹
same,FXa kcat/KM,[25],2600 M⁻¹ s⁻¹
same,FXa kcat/KM,[26],37 M⁻¹ s⁻¹
same,FXa kcat/KM,[27],430 M⁻¹ s⁻¹
same,FXa kcat/KM,[28],530 M⁻¹ s⁻¹
same,FXa kcat/KM,[29],700 M⁻¹ s⁻¹
same,FXa kcat/KM,[30],1400 M⁻¹ s⁻¹
same,FXa kcat/KM,[31],690 M⁻¹ s⁻¹
same,FXa kcat/KM,[32],13 M⁻¹ s⁻¹
same,FXa kcat/KM,[33],82 M⁻¹ s⁻¹
same,FXa kcat/KM,[34],550 M⁻¹ s⁻¹
same,FXa kcat/KM,[35],2.2 M⁻¹ s⁻¹
same,FXa kcat/KM,[36],640 M⁻¹ s⁻¹
same,FXa kcat/KM,[37],460 M⁻¹ s⁻¹
same,FXa kcat/KM,[38],190 M⁻¹ s⁻¹
same,FXa kcat/KM,[39],15 M⁻¹ s⁻¹
same,FXa kcat/KM,[40],660 M⁻¹ s⁻¹
same,FXa kcat/KM,[41],70 M⁻¹ s⁻¹
